Reference: patent US20080045469A1 (published 2008)
Blank lines part the entries; values can stand above or below the binder they belong to.

Experiments:
[1] = biological target: the molecule itself; test: sandwich ELISA of cell lysates and conditioned media of hPLGF-1-KDEL-LLC cells
Source text: To quantify the amounts of intracellular and extracellular dimeric molecules, a sensitive sandwich ELISA assay was used to analyze cell lysates and conditioned media from transduced and non-transduced LLC cell lines. Specific antibodies were used against each factor, either two antibodies against the same factor but raised in different species (homodimers) or two antibodies against different factors (heterodimers). As expected, a high level of mVEGF homodimers was detected in conditioned media from controls, wt LLC and vector-transduced LLC cells (Table 1).

[2] = biological target: recombinant human VEGF165 monomer (E. coli) (human, UniProt P15692-4 27-191); test: in vitro reduction and refolding of E. coli proteins
Description: Recombinant human PLGF-1 (SEQ ID NO: 1) and VEGF₁ monomers were expressed in E. Coli as previously described⁴⁴. An equimolar of mixture of PLGF-1- and VEGF₁ homodimers, at a total protein concentration of 0.5 mg/ml, was incubated in reducing buffer (20 mM Tris-HC1, pH 8.0, 6 M guanidine-HC1, and 10 mM DTT) at 4° C. over night. The following day the protein solution was dialyzed against 10 volumes of refolding buffer (2 M urea, 20 mM Tris-HC1, pH 8.0, 2 mM GSH (glutathione-SH) and 0.5 mM GSSG (glutathione-S-S-glutathione)). Using this refolding protocol, a mixture of homodimeric PLGF-1 and VEGF₁ as well as heterodimeric PLGF-1/VEGF was generated.

[3] = biological target: T1, human VEGF165 expressed in transduced LLC cells (human), P15692; test: sandwich ELISA of conditioned medium of hVEGF-LLC cells, homodimer format; conditions: remark: other sources report otherwise
T1 chain: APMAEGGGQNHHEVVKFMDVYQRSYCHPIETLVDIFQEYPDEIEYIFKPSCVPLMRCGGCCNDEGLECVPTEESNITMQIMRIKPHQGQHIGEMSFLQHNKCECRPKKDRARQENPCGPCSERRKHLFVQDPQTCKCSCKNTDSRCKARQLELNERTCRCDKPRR

B1: human PLGF-1 with C-terminal KDEL ER-retention signal (ligand)
chain: LPAVPPQQWALSAGNGSSEVEVVPFQEVWGRSYCRALERLVDVVSEYPSEVEHMFSPSCVSLLRCTGCCGDENLHCVPVETANVTMQLLKIRSGDRPSYVELTFSQHVRCECRPLREKMKPERCGDAVPRRKDEL
notes: Expressed in transduced LLC cells; also called hPLGF-1-KDEL; PLGF-1-KDEL
binding result [1]: binds

binding result [2]: binds
B2: recombinant human PLGF-1 monomer (E. coli) (ligand)
chain: LPAVPPQQWALSAGNGSSEVEVVPFQEVWGRSYCRALERLVDVVSEYPSEVEHMFSPSCVSLLRCTGCCGDENLHCVPVETANVTMQLLKIRSGDRPSYVELTFSQHVRCECRPLREKMKPERCGDAVPRR

homodimer concentration in conditioned medium [3]: 41900 pg/mL
B3: human VEGF165 expressed in transduced LLC cells, P15692 27-191 (ligand, UniProt P15692-4 27-191, looked up)
chain: T1 chain
